US20240368663A1, “CELL-FREE BIOPRODUCTION OF B-CRYPTOXANTHIN AND ZEAXANTHIN” (DEBUT BIOTECHNOLOGY, INC., priority 2021, published 2024)

B1: P. ananatis CrtZ: β-carotene hydroxylase enzyme (CrtZ, EC1.14.15.24) from P. ananatis, used as E. coli cell lysate; likely Pantoea WP_013027996.1 (protein, listed as Pantoea sp.)
chain: MLWIWNALIVFVTVIGMEVVAALAHKYIMHGWGWGWHLSHHEPRKGAFEVNDLYAVVFAALSILLIYLGSTGMWPLQWIGAGMTAYGLLYFMVHDGLVHQRWPFRYIPRKGYLKRLYMAHRMHHAVRGKEGCVSFGFLYAPPLSKLQATLRERHGARAGAARDAQGGEDEPASGK

What was measured:
[1] = cited from earlier work
[2] = Cell-free conversion of β-carotene to zeaxanthin with cell lysate expressing CrtZ; type: biochemical; details: 1.67 mM β-carotene, 24 hours
Description: Enzyme Expression and Purification: All genes were synthesized and cloned into expression plasmids and then transformed into E. coli cells for expression. Cells were grown in Terrific Broth media supplemented with 50 μg/mL kanamycin sulfate at 37° C. and 200 rpm until A595=0.6. Cells were cooled to 18° C., protein expression was induced, and the cultures were grown for an additional 18 h. Cell pellets were collected by centrifugation, and then resuspended in a 1.8 mL lysis buffer (50 mM Tris pH 8.5, 150 mM NaCl, 10% Glycerol (v/v)) per gram of cell paste. Cell lysates were prepared by sonication and clarified by centrifugation at 11,000×g for 10 minutes, at 4° C. After clarification, lysate was kept on ice or flash frozen and stored at −80° C. for later use.
Analytical methods: For sampling, 5× volume of THE was mixed with the reaction fluid, followed by high-speed centrifugation. Samples were run on an HPLC system to examine the amount of β-cryptoxanthin and zeaxanthin present in the reaction mixture. The HPLC method was as follows: An Agilent 1200 HPLC was fitted with an Acclaim C-30 Column 250 mm×4.6 mm, 5 μm, equipped with an Acclaim C-30 guard column. The column was heated to 20° C. with the sample block being maintained at 20° C. For each sample, 10 μL was injected and the product was eluted at a flow rate of 1.0 ml/min using Methanol (solvent A) and tert-butyl-methyl ether (solvent B) with the following gradient: 80% A to 65% A for 10 min, 65% A to 10% A for 10 min, 10% A for 5 min, 10% A to 80% for 0.5 min, and 80% A for 5.5 min for column equilibration. The run time was a total of 31 minutes with zeaxanthin eluting at 7.2 mins, β-cryptoxanthin eluting at 12.2 minutes, and β-carotene eluting at 16.9 min. A diode array detector (DAD) was used for the detection of the molecule of interest at 450 nm.
As described herein, β-carotene is hydroxylated by the CrtZ enzyme (CrtZ, EC1.14.15.24) to form β-cryptoxanthin, and then β-cryptoxanthin is hydroxylated by CrtZ to form Zeaxanthin. […]

[3] = 2% polysorbate 20, 6% THE, 0.2 mM FeSO4, 16° C.

Row | Molecule | solubility in water [1] | β-carotene substrate converted into zeaxanthin ([2]; 2% polysorbate 20 (v/v), 6% THE (v/v), 0.2 mM FeSO4, concentrated cell lysate, 16° C.) | zeaxanthin concentration produced [2, 3] [mM] | zeaxanthin titer produced [2, 3] [mg/L]
1 | CC1=C(/C=C/C(C)=C/C=C/C(C)=C/C=C/C=C(C)/C=C/C=C(C)/C=C/C2=C(C)CCCC2(C)C)C(C)(C)CCC1 [β-carotene] | insoluble in water | – | – | –
2 | CC1=C(/C=C/C(C)=C/C=C/C(C)=C/C=C/C=C(C)/C=C/C=C(C)/C=C/C2=C(C)C[C@@H](O)CC2(C)C)C(C)(C)CCC1 [β-cryptoxanthin] | insoluble in water | – | – | –
3 | B1 | – | 84 % (molar ratio) | ~1.4 | 796
